Measured values as given in PMC5045929, “Norovirus-Specific Memory T Cell Responses in Adult Human Donors” (Frontiers in Microbiology, 2016).

Target: the molecule itself
Test: negative-stain electron microscopy; sucrose gradient-purified VLPs from baculovirus-infected Sf9 cells, negatively stained with 3% uranyl acetate (pH 4.5), 23,000x

B1: Norovirus GII.4 Sydney capsid protein VP1 (virus-like particles) (natural protein)
chain: MKMASSDANPSDGSAANLVPEVNNEVMALEPVVGAAIAAPVAGQQNVIDPWIRNNFVQAPGGEFTVSPRNAPGEILWSAPLGPDLNPYLSHLARMYNGYAGGFEVQVILAGNAFTAGKVIFAAVPPNFPTEGLSPSQVTMFPHIVVDVRQLEPVLIPLPDVRNNFYHYNQSNDPTIKLIAMLYTPLRANNAGDDVFTVSCRVLTRPSPDFDFIFLVPPTVESRTKPFSVPVLTVEEMTNSRFPIPLEKLFTGPSSAFVVQPQNGRCTTDGVLLGTTQLSPVNICTFRGDVTHITGSRNYTMNLASQNWNDYDPTEEIPAPLGTPDFVGKIQGVLTQTTRTDGSTRGHKATVYTGSADFAPKLGRVQFETDTDRDFEANQNTKFTPVGVIQDGGTTHRNEPQQWVLPSYSGRNTHNVHLAPAVAPTFPGEQLLFFRSTMPGCSGYPNMDLDCLLPQEWVQYFYQEAAPAQSDVALLRFVNPDTGRVLFECKLHKSGYVTVAHTGQHDLVIPPNGYFRFDSWVNQFYTLAPMGNGTGRRRAV
notes: The VP1 gene was cloned; also called GII.4 SYD VLP; GII.4-2012 (Sydney); source: Sf9 insect cells (baculovirus, pFastBac1), purified by two discontinuous sucrose gradient ultracentrifugations
binding result: binds
